{
  "source": "patent US5503975",
  "about": "“Mechanism based inhibitors of DNA methyltransferase” (City of Hope)",
  "binders": {"B1": {"name": "48L-1 (structured_DNA)", "DNA": "TCGAGGCCAGGTAGCCCGGATCTGGTGGACGTCCACCAGATCC", "modifications": "five non-nucleotide linker units between 30mer and 13mer; 5mC at end of short arm"}},
  "target": "DNA (cytosine-5) methyltransferase (Homo sapiens, UniProt P26358 P26358:1-1616)",
  "sequence (P26358 whole entry, one chain of several)": "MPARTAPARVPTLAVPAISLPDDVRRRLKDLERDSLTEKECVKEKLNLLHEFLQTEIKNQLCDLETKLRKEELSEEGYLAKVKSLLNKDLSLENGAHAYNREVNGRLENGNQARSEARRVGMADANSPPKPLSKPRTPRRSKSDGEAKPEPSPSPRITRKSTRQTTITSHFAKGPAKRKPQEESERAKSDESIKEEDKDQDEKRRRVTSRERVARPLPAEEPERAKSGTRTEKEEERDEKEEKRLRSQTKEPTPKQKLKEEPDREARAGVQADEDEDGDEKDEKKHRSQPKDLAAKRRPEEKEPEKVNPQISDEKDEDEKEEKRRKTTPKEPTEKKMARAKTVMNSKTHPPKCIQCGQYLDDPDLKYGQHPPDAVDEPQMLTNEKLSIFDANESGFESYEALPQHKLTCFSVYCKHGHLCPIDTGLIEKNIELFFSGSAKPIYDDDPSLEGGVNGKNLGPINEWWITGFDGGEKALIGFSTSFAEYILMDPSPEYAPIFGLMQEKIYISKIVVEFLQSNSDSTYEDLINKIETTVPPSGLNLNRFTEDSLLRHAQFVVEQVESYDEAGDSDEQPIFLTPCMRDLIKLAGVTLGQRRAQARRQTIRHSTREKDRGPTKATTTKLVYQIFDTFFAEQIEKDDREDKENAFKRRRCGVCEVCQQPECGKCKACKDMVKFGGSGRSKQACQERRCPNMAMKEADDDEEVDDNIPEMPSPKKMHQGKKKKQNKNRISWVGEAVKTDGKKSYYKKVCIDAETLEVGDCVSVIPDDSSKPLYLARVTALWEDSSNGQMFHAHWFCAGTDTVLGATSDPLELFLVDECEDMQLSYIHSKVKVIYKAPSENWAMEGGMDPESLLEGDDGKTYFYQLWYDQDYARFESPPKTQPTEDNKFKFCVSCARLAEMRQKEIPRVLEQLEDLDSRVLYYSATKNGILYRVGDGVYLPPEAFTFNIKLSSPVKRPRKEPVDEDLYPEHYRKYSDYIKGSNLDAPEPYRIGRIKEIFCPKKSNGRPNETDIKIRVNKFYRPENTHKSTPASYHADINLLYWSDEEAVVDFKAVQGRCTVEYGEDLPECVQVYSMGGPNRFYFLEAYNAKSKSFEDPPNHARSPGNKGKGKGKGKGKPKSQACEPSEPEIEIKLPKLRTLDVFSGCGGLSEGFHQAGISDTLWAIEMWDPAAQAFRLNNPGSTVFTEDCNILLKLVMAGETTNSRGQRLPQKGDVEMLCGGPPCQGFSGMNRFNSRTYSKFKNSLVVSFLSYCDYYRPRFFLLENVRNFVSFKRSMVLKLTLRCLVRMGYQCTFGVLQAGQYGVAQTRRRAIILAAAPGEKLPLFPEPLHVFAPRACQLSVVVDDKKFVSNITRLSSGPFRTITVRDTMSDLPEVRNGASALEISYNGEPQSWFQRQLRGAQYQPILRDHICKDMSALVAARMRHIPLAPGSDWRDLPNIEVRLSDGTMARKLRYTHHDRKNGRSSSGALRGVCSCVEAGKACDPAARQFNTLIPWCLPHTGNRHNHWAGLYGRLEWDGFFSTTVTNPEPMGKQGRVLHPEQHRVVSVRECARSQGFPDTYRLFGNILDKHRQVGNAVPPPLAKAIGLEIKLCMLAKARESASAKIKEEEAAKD",
  "assay": "tritiated AdoMet methyl transfer, 37 C, HEPES pH 7.0, 50 mM NaCl, 75 uM spermine; methyl at short arm end stimulates rate",
  "settings": "tags: none; purified from human placenta (partially purified/crude preparation for the covalent complexes); gapped foldback with L5 linker loop",
  "experimental": "For the determination of initial velocities with oligodeoxynucleotide substrates, the enzyme was dialyzed for 3 hours in a Hoefer microdialyzer (Health Products Inc., Rockford, Ill.) against 38 mM glycine, 17% v/v glycerol, 5 mM Tris, 10 mM β-mercaptoethanol, pH 7.8 at 4° C. The final reaction volume of 100 μl contained: 0.4 μg total DNA, 50 mM HEPES pH 7.0, 50 mM NaCl, 2 mM DTT, 75 μM Spermine, 10% v/v glycerol and […] [^3H]AdoMet (Amersham, 15 Ci/mmole). Reaction mixtures were preincubated at 37° C. for 15 minutes before the addition of 44 U of DNA methyltransferase to initiate the reaction. The reaction rate was linear under these conditions for 30 minutes. After 20 minutes of incubation, the reactions were stopped by the addition of 5 ml of cold TCA (5% w/v TCA containing 5 mM potassium pyrophosphate). Tritium incorporated into TCA insoluble DNA was determined as previously described (Smith, S. S., supra).",
  "data": [
    {"binder": "B1", "values": [
      {"measurement": "activity", "result": "> 100", "unit": "fold stimulation"}
    ]}
  ]
}
